Experimental data published in US20040102382A1, “Targeting peptides” (priority 2002, published 2004).
No end group written: not given here.

B1: MPL phage (M13 phage of the PhD-12 library displaying …) (peptide)
peptide: MPLPQPSHLPLL
modifications: not fully specified (C-terminus)
B2: WPV phage (M13 phage of the PhD-12 library displaying …) (peptide)
peptide: WPVRPWMPGPVV
modifications: not fully specified (C-terminus)
B3: WPT phage displaying … (M13 phage of the PhD-12 library) (peptide)
peptide: WPTSPWLEREPA
modifications: not fully specified (C-terminus)
B4: WPT phage displaying … (M13 phage of the PhD-12 library) (peptide)
peptide: WPTSPWSSRDWS
modifications: not fully specified (C-terminus)
B5: LPQ phage (M13 phage of the PhD-12 library displaying …) (peptide)
peptide: LPQRAFWVPPIV
modifications: not fully specified (C-terminus)

What was measured:
[1] = test system: P815MUC1 cells; experiment: Competition of phage binding by synthetic peptides; design: species or system mouse; settings: for inhibition of WPY phage binding: increasing amounts of peptide (WPY 0.1, 10 and 500 μM)
Protocol: Synthetic peptides corresponding to the WPY and LPQ sequences of the previously selected phages (second and fourth sequences of Table 3) were synthetized (Neosystem, strasbourg, France). Increasing amounts of WPY peptide (0.1, 10 and 500 μM) and LPQ peptide (0.1, 10 and 1000 μM) or control peptides GHL and SGR (a non-selected phage from the PhD-C7C library) were diluted in a total volume of 1 ml of PBS-BSA1 % with 5.10^6 P815MUC1 cells and incubated for 1 hour at 4° C. under slight agitation. 1.10^10 WPY or LPQ phages in 200 μl of PBS-1% BSA were added and incubated with the cells and the peptide for two hours at 4° C. under slight agitation. Cells were then washed and bound phages eluted and titered following the same protocol as for the selections.

[2] = test system: WiDr cells; experiment: Phage binding specificity test (output/input ratio); design: species or system human; settings: fifth pool, PhD-C7C library
[3] = target: coxsackievirus-adenovirus receptor (CAR) on cells (UniProt P78310); experiment: cell-based or functional assay
[4] = target: MUC1 as expressed on P815MUC1 cells (P815 mouse mastocytoma cells transfected with MUC1 and Neomycin expression cassettes) (UniProt P15941); experiment: phage titration on MUC1-transfected against control-transfected P815 cells (FIG. 4)
[5] = target: MUC1 as expressed on P815MUC1 cells (P815 mouse mastocytoma cells transfected with MUC1 and Neomycin expression cassettes) (UniProt P15941); experiment: phage titration on P815MUC1 cells (1.5e11 phages, 1e7 cells; FIG. 4); the same is said of MUC1-negative P815pAG60 cells
[6] = increasing amounts of peptide (LPQ 0.1, 10 and 1000 μM), 1.10^10 phages, 4° C.

Chain of UniProt P78310 (P78310 20-365 limits assumed): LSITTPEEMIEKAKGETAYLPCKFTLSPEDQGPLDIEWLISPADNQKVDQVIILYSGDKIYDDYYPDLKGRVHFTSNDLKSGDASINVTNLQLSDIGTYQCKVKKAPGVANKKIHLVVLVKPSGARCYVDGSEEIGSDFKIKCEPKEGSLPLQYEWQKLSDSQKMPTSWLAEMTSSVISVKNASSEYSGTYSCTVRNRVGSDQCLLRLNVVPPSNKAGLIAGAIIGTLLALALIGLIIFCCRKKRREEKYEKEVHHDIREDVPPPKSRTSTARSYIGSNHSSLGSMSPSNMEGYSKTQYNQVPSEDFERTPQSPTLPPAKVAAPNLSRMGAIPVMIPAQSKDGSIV

| Molecule | fold binding to P815MUC1 cells over P815pAG60 cells [4] [times] | fold higher affinity than the control phages (M13, GHL) [5] [fold] | further results |
| --- | --- | --- | --- |
| LPQRAFWVPPIV |  |  | inhibition of LPQ phage binding [1, 6]: inhibit in a dose-dependant manner |
| CLPSTRQTC [CLPSTRWTC] |  |  | binding to WiDr cells compared to the subtractor 293 cells [2]: specific binding |
| CWPYPSHFC |  |  | inhibition of LPQ phage binding ([1]; 500 μM concentration of non-corresponding peptide): did not significatively inhibit; inhibition of WPY phage binding ([1]; 1.10^10 phages, 4° C.): inhibit in a dose-dependant manner |
| GHLIPLRQPSHQ [GHL used as control peptide and non-selected PhD12 control phage, reference compound] |  |  | inhibition of LPQ phage binding [1, 6]: did not significatively inhibit; inhibition of WPY phage binding ([1]; 1.10^10 phages, 4° C.): did not significatively inhibit |
| Adenovirus type 5 wild-type fiber protein, as carried by the Ad-fbwt virus (from UniProt P11818 1-581) |  |  | inhibition of infection of 293 and HeLa cells (β-galactosidase activity, % of control) by soluble knob at 10 µg/ml [3]: > 90% |
| B1 | > 3 | > 100 |  |
| B2 | > 3 | > 100 |  |
| B3 | > 3 | > 100 |  |
| B4 | > 3 | > 100 |  |
| B5 | > 3 | > 100 |  |
